This note sets out measurements from patent US20090202533A1 (CSL, published 2009).

For experiment [1], the target named is IL-11R-Fc. Description: competition ELISA on IL-11R-Fc. A general note: An ELISA detects its analyte on a solid surface through an enzyme-linked reagent.
Experiment [2] addresses T1, murine IL-11R on Ba/F3 cells stably transfected with murine IL-11R/gp130 (murine, UniProt Q64385 24-432).
T1 sequence (looked up): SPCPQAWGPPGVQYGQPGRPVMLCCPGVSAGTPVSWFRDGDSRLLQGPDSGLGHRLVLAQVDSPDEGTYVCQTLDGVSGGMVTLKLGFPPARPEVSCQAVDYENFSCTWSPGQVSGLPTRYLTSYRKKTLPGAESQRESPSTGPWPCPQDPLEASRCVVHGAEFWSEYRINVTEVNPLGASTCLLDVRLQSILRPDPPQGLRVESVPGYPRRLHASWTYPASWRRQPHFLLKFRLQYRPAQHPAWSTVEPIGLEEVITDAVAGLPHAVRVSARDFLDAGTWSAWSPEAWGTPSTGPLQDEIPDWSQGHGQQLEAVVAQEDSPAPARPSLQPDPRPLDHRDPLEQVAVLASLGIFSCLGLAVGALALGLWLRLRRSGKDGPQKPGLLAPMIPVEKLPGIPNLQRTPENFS
Description: cell-based or functional assay.

The target of experiment [3] is IL-11R-Fc. In words: IL-11R binding ELISA.

The molecule “IL-11 mutein of SEQ ID NO: 1 (AMSAG at positions 58-62 of mature murine IL-11 replaced with PAIDY, tryptophan at position 147 replaced with alanine), N-terminal His-tagged (from UniProt P47873 22-199) (ligand)” yielded a fold higher binding affinity than murine W147A IL-11 in the experiment with IL-11R-Fc [1] of 20 fold.

B1: PEGylated mutein (mutein of SEQ ID NO: 3 with a single 40 kDa PEG moiety on the Cys introduced at position 147) (ligand)
chain: VSSDPRADLDSAVLLTRSLLADTRQLAAQMRDKFPADGDHSLDSLPTLPAIDYTLGSLQLPGVLTRLRVDLMSYLRHVQWLRRAGGPSLKTLEPELGALQARLERLLRRLQLLMSRLALPQAAPDQPVIPLGPPASACGSIRAAHAILGGLHLTLDWAVRGLLLLKTRL
modifications: mPEG2-maleimide (single 40 kDa PEG moiety) on the Cys introduced at position 147 (position as printed, numbering of mature murine IL-11)
Regarding B1, the “ability to antagonize IL-11-induced Ba/F3 cell proliferation, relative to non-PEGylated mutein” value in experiment [2] was ~10 fold. The molecule further gave a fold reduction of binding affinity relative to non-PEGylated mutein in the experiment with IL-11R-Fc [3] of 5 fold.
